The target of this assay is SF3B5 (human (endogenous in K562), UniProt Q9BWJ5 1-86). Put plainly: cryo-EM structure.

Experimental findings from article doi:10.1101/2025.07.31.667873 (bioRxiv, 2025) are described below.

B1: TAF6L (natural protein)
chain: MSEREERRFVEIPRESVRLMAESTGLELSDEVAALLAEDVCYRLREATQNSSQFMKHTKRRKLTVEDFNRALRWSSVEAVCGYGSQEALPMRPAREGELYFPEDREVNLVELALATNIPKGCAETAVRVHVSYLDGKGNLAPQGSVPSAVSSLTDDLLKYYHQVTRAVLGDDPQLMKVALQDLQTNSKIGALLPYFVYVVSGVKSVSHDLEQLHRLLQVARSLFRNPHLCLGPYVRCLVGSVLYCVLEPLAASINPLNDHWTLRDGAALLLSHIFWTHGDLVSGLYQHILLSLQKILADPVRPLCCHYGAVVGLHALGWKAVERVLYPHLSTYWTNLQAVLDDYSVSNAQVKADGHKVYGAILVAVERLLKMKAQAAEPNRGGPGGRGCRRLDDLPWDSLLFQESSSGGGAEPSFGSGLPLPPGGAGPEDPSLSVTLADIYRELYAFFGDSLATRFGTGQPAPTAPRPPGDKKEPAAAPDSVRKMPQLTASAIVSPHGDESPRGSGGGGPASASGPAASESRPLPRVHRARGAPRQQGPGTGTRDVFQKSRFAPRGAPHFRFIIAGRQAGRRCRGRLFQTAFPAPYGPSPASRYVQKLPMIGRTSRPARRWALSDYSLYLPL
Turning to B1, the binding result was “binds”.
